Substrate in the data set: CC[C@H](C)[C@H](N)C(=O)O
As to the kind of experiment: HPLC of 4-hydroxyisoleucine after precolumn derivatization; Michaelis-Menten fit. Format: biochemical, Bacillus thuringiensis. The following applies: apparent, L-Ile 0.02 to 5 mM, 10 mM alpha-ketoglutarate, 5 mM FeSO4, 10 mM ascorbic acid, 100 mM Tris-HCl pH 7.0, 30 °C. The text has this: HPLC of 4-hydroxyisoleucine after precolumn derivatization; Michaelis-Menten fit on IDO (L-isoleucine dioxygenase)

Consider one protein from publication PMC5972919, “A strategy for L-isoleucine dioxygenase screening and 4-hydroxyisoleucine production by resting cells” (Bioengineered, 2017).

B1: IDO (L-isoleucine dioxygenase) (Bacillus thuringiensis) (protein)
chain: MKMSGFSIEEKVHEFESKGFLEISNEIFLQEEENHRLLTQAQLDYYNLEDDAYGECRAGSYSRYIKYVDSPDYILDNSNDYFQSKEYNYDDGGKVRQFHSINDSFLYNPLIQNIVRFDTEFAFKTNIIDTSKDLIIGLHQVRYKATKERPSFSSPIWLHKDDEPVVFLHLMNLSNTAIGGDNLIANSPREINQFISLKEPLETLVFGQKVFHAVTPLGTECSTEAFRDILLVTFSYKETK
notes: motif His159-X-Asp161-X50-His212
A word on the Km: it is the concentration of substrate that gives half-maximal velocity. Usually Vmax stands for the rate approached at saturating substrate. By kcat is commonly meant the number of substrate molecules converted per active site and unit of time at saturation. In general, kcat/Km refers to the turnover number divided by the Michaelis constant. B1: the Km was 200 µM, the Vmax came out at 2.18 µmol/min/mg, the kcat amounted to 0.0727 s⁻¹ and the kcat/Km was 363 M⁻¹ s⁻¹.
